Laboratory results from US20250263472A1 (IGGENIX, published 2025).

Biological target: T1, Natural Ara h 6 (InBio) (peanut, UniProt Q647G9 22-145)
T1 sequence (looked up): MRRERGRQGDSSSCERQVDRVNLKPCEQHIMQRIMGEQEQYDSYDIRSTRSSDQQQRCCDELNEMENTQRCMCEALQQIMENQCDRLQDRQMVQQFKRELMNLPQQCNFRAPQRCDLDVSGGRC
Test: told in the description of Combination-1; assay not named

- binding result: binds
B1: Molecule-1a (bispecific antibody, human IgG4 S228P, kappa)
heavy: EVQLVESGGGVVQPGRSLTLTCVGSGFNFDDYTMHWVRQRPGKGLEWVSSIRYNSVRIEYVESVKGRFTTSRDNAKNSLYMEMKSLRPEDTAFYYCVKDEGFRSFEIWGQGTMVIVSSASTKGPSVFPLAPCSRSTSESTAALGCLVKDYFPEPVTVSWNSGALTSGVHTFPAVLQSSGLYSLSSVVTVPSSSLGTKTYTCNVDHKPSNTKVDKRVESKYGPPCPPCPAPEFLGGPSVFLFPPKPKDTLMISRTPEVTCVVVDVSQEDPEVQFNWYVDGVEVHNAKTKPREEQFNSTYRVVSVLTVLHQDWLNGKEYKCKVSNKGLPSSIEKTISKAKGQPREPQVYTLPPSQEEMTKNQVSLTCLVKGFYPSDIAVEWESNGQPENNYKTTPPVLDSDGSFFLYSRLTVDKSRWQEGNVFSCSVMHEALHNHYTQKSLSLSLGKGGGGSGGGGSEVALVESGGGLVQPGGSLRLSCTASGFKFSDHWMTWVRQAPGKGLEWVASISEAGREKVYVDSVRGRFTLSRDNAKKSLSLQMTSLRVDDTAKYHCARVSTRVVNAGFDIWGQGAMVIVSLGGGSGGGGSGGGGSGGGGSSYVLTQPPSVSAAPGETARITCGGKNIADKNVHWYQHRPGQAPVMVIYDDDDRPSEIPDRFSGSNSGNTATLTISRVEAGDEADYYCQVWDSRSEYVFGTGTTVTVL
light: DIVMTQSPLSLPVTPGEPASISCRSTQSLEHSNGYHYLDWYVQKAGQSPQLLISLGSKRASGVPDRFSGSVSGTDFTLKISRVEAEDVGVYYCMQALQTWTFGQGTKVEIKRTVAAPSVFIFPPSDEQLKSGTASVVCLLNNFYPREAKVQWKVDNALQSGNSQESVTEQDSKDSTYSLSSTLTLSKADYEKHKVYACEVTHQGLSSPVTKSFNRGEC
notes: CMC liabilities removed; also called Molecule-1 (of Combination-1)
